Experimental data: PMC6717114 (Biochemical Journal, 2019)

Molecular target: Mouse Pcdh15 EC1-2 wild-type (mouse, UniProt Q99PJ1-18 27-259)
Assay: single-molecule force spectroscopy

- koff: 0.0045 s⁻¹
B1: Mouse Cdh23 EC1-2 wild-type (domain or fragment, UniProt Q99PF4 24-228, looked up)
chain: QVNRLPFFTNHFFDTYLLISEDTPVGSSVTQLLARDMDNDPLVFGVSGEEASRFFAVEPDTGVVWLRQPLDRETKSEFTVEFSVSDHQGVITRKVNIQVGDVNDNAPTFHNQPYSVRIPENTPVGTPIFIVNATDPDLGAGGSVLYSFQPPSPFFAIDSARGIVTVIQELDYEVTQAYQLTVNATDQDKTRPLSTLANLAIIITD
